Results from paper PMC8444148 (Molecular psychiatry, 2019).

T1: ATF4 278-349 (basic region + leucine zipper) (UniProt Q06507 278-349)
T1 sequence: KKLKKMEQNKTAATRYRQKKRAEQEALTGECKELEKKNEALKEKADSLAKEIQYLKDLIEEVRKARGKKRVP

B1: DISC1-CC (coiled coil, residues 765-835) (domain or fragment, UniProt Q811T9-1 765-835, looked up)
chain: GPWKEDSHIVSAEVGEKCEAIGVKLLHLEDQLLGAMYSHDEALFQSLQGELQTVKETLQAMILQLQPTKEA
B2: ATF4 leucine zipper domain (residues 314-349) (domain or fragment, UniProt Q06507 314-349, looked up)
chain: KNEALKEKADSLAKEIQYLKDLIEEVRKARGKKRVP
B3: CRE dsDNA (dsDNA)
DNA 1: GCAGATGACGTCATCTGC
DNA 2: GCAGATGACGTCATCTGC
B4: DISC1 322-852 (predicted helical region of DISC1) (domain or fragment, UniProt Q811T9-1 322-852, looked up)
chain: ADAHGWHTLLREWEPMLQDYLLSNRRQLEVTSLILKLQKCQEKVVEDGDYDTAETLRQRLEELEQEKGRLSWALPSQQPALRSFLGYLAAQIQVALHGATQRAGSDDPEAPLEGQLRTTAQDSLPASITRRDWLIREKQRLQKEIEALQARMSALEAKEKRLSQELEEQEVLLRWPGCDLMALVAQMSPGQLQEVSKALGETLTSANQAPFQVEPPETLRSLRERTKSLNLAVRELTAQVCSGEKLCSSLRRRLSDLDTRLPALLEAKMLALSGSCFSTAKELTEEIWALSSEREGLEMFLGRLLALSSRNSRRLGIVKEDHLRCRQDLALQDAAHKTRMKANTVKCMEVLEGQLSSCRCPLLGRVWKADLETCQLLMQSLQLQEAGSSPHAEDEEQVHSTGEAAQTAALAVPRTPHPEEEKSPLQVLQEWDTHSALSPHCAAGPWKEDSHIVSAEVGEKCEAIGVKLLHLEDQLLGAMYSHDEALFQSLQGELQTVKETLQAMILQLQPTKEAGEASASYPTAGAQETEA

What was measured:
C/EBPζ (CHOP) = C/EBPζ (CHOP) (UniProt P35639 1-168); assay: ITC
C/EBPζ (CHOP), sequence (P35639 whole entry): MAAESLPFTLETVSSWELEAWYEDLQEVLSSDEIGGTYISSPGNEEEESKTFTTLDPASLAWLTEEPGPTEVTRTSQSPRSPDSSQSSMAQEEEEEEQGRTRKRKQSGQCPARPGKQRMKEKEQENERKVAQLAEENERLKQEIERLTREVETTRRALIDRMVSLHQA

C/EBPα = C/EBPα (UniProt P53566 1-359); assay: ITC
C/EBPα, sequence (P53566 whole entry): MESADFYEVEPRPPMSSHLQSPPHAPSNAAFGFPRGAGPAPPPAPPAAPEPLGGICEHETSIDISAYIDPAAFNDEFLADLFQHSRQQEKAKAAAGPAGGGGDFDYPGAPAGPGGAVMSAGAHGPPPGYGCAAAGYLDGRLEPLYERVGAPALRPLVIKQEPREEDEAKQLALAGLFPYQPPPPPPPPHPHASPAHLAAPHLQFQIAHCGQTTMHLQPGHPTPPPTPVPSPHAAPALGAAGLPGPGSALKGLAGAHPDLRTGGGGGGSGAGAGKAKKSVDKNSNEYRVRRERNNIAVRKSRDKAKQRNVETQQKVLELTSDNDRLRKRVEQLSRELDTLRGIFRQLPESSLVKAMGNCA

[1] = molecular target: B4; assay: ITC
SEC-MALS = molecular target: the molecule itself; assay: SEC-MALS
[2] = molecular target: T1, ATF4 278-349 (basic region + leucine …); assay: ITC
[3] = molecular target: B2; assay: ITC

Binder: B1
- fold weaker than the DISC1/ATF4 interaction (C/EBPζ (CHOP)): ~2000 fold
- Kd (C/EBPα): ~11000 nM

Binder: B2
- Kd [1]: ~14 nM

Binder: KNEALKEKADSLAKEIQYLKDLIEEVRKARGKKRVP (domain or fragment, UniProt Q06507 314-349, looked up) [trx tagged-ATF4-LZ]
- stoichiometry N (SEC-MALS): 2

Binder: B3
- Kd [2]: ~12 nM

Binder: B4
- stoichiometry N [3]: 1
